Test results: publication doi:10.1101/803361

Biological target: Fluorescein-labelled Hsf1 peptide with the Hsc70 binding site in the TAD, residues 461-471 (human) (UniProt Q00613)
Experiment: fluorescence polarisation

Sequence of Fluorescein-labelled Hsf1 peptide with the Hsc70 binding site in the TAD, residues 461-471 (human) (Q00613 whole entry, looked up, the tested form may be a part): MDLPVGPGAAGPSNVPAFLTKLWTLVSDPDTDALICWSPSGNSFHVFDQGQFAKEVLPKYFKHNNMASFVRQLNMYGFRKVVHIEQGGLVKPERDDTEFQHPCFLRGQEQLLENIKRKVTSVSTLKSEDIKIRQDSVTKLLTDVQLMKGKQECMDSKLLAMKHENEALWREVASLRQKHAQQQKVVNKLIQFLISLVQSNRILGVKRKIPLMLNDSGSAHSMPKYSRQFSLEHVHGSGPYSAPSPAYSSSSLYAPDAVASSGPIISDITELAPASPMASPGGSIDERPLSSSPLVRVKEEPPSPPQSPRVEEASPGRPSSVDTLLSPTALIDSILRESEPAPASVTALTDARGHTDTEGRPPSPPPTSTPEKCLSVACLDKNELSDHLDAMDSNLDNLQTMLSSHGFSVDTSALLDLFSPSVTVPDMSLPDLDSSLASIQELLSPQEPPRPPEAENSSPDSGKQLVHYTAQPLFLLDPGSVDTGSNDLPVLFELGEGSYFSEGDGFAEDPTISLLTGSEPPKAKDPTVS
Sequence of Human Hsc70 (HSPA8), wild type (P11142 whole entry): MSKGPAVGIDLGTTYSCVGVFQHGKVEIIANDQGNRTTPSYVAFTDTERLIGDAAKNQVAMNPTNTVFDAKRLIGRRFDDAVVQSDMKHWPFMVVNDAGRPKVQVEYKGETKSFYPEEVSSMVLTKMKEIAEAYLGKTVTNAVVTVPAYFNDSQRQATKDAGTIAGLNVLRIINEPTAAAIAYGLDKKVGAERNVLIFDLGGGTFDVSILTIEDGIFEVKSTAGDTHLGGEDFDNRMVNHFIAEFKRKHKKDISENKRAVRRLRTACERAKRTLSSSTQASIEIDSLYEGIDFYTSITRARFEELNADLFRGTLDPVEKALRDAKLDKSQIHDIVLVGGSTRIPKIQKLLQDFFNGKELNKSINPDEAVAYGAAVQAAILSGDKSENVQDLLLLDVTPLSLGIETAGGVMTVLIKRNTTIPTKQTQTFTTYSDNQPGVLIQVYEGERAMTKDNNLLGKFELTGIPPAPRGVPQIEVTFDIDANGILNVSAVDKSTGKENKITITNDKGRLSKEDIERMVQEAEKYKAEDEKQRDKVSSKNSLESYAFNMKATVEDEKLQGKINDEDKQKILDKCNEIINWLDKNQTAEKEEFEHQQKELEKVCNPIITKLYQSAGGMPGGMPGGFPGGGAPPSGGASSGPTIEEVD

Human Hsc70 (HSPA8), wild type (from UniProt P11142 1-646) (natural protein)
Kd: 5 to 30 µM
